Data taken from patent US20140234321.

B1: Hunk (Hormonally Up-regulated, Neu-Tumor-Associated Kinase), mouse, 714-amino-acid ~80-kDa polypeptide (protein)
chain: MPAAAGDGLLGEPAAPGGDGGAEDTTRPAAACEGSFLPAWVSGVSRERLRDFQHHKRVGNYLIGSRKLGEGSFAKVREGLHVLTGEKVAIKVIDKKRAKKDTYVTKNLRREGQIQQMIRHPNITQLLDILETENSYYLVMELCPGGNLMHKIYEKKRLDEAEARRYIRQLISAVEHLHRAGVVHRDLKIENLLLDEDNNIKLIDFGLSNCAGILGYSDPFSTQCGSPAYAAPELLARKKYGPKIDVWSIGVNMYAMLTGTLPFTVEPFSLRALYQKMVDKAMNPLPTQLSTGAVNFLRSLLEPDPVKRPNIQQALANRWLNENYTGKVPCNVTYPNRISLEDLSPSVVLHMTEKLGYKNSDVINTVLSNRACHILAIYFLLNKKLERYLSGKSDIQDSICYKTQLYQIEKCRATKEPYEASLDTWTRDFEFHAVQDKKPKEQEKRGDFLHRPFSKKLDKNLPSHKQPSPSLITQLQSTKALLKDRKASKSGFPDKDSFVCRNLFRKTSDSNCVASSSMEFIPVPPPRTPRIVKKLEPHQPGPGSASILPKEEPLLLDMVRSFESVDREDHIELLSPSHHYRILSSPVSLARRNSSERTLSQGLLSGSTSPLQTPLHSTLVSFAHEEKNSPPKEEGVCSPPPVPSNGLLQPLGSPNCVKSRGRFPMMGIGQMLRKRHQSLQPSSERSLDASMSPLQPIAPSSLSFDMADGVKGQC
Histone H1
  in vitro kinase assay of Hunk immunoprecipitates with [gamma-32P]ATP: Hunk immunoprecipitates were able to phosphorylate both histone H1 and MBP in vitro
  in vitro kinase assay of anti-Hunk immunoprecipitates with gamma-32P-ATP and histone H1: Hunk-associated kinase activity was substantially greater in immunoprecipitates prepared from transgenic when compared with wild type mammary glands
Myelin basic protein
  in vitro kinase assay of Hunk immunoprecipitates with [gamma-32P]ATP: Hunk immunoprecipitates were able to phosphorylate both histone H1 and MBP in vitro
